The record followed here is patent publication US9550817B2, “Men1 gene for diagnosis and treatment of diabetes” (THE TRUSTEES OF THE UNIVERSITY OF PENNSYLVANIA, priority 2006, dated 2017).

The target in this experiment is T1, menin (Homo sapiens, UniProt O00255).
T1 construct: made in house; host or cells: E. coli
T1 sequence (O00255 1-610): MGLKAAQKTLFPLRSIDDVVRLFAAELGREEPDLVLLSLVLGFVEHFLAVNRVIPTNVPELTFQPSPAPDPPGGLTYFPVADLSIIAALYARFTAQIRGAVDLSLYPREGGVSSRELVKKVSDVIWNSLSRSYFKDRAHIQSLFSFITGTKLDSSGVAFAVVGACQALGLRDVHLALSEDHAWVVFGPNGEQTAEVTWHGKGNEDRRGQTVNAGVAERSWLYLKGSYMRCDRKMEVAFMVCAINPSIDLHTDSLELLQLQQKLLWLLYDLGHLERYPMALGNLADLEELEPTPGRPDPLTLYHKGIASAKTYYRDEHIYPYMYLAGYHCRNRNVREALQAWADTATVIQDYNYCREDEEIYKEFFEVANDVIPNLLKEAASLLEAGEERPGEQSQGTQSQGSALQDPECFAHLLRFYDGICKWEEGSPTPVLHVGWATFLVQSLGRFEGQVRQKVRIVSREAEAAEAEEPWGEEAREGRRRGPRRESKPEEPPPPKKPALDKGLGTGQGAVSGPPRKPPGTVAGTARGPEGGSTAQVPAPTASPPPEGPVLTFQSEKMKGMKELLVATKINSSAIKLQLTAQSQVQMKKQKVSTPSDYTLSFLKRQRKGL
The experiment in a line: Pull-down of menin by biotinylated peptides on streptavidin-agarose beads, Western blot with anti-menin antibody. The format is binding. The settings on record: menin expressed in and purified from E. coli. The protocol: Biotinylated peptides were synthesized at the Peptide synthesis facility at Yale University, and loaded to streptavidin-agraose beads (Invitrogen, Inc), and incubated with menin expressed in and purified from E. coli. After multiple washings, the beads were analyzed via Western blot analysis using an anti-menin antibody.
Biotinylated peptides were synthesized, loaded to streptavidin-agraose beads (Invitrogen Inc), and incubated with menin expressed in and purified from E. coli. After multiple washings, the beads were analyzed via Western blot analysis using an anti-menin antibody. […] Especially, the peptide designated the sequence […] (SEQ ID No. 7).

Regarding “MAHSCRWRFPGSGSCRWRFP (Human) [SEQ ID No. 7, short synthetic peptide from the N-terminus of MLL]”, the “binding of peptide to menin in vitro (FIG. 12)” value is given as “able to react with Men1”.
